{
  "source": "patent US20250296971A1",
  "about": "“GASTRIC INHIBITORY PEPTIDE RECEPTOR LIGANDS” (priority 2021, published 2025)",
  "binders": {"B1": {"name": "DOTA-APAc-Asp-Trp-5Clw-Hyp-Glu-leu-[Dap(2Lut)-Thp-Leu-Ile-AET] (peptide)", "peptide": "{DOTA-APAc″}-DW[Trp(5-Cl)][Hyp]E[dL][Dap][Thp]LI[Cysteamide]", "modifications": "linker (positions not given here) via Pyridine(2,6-diCH2); not fully specified (bridges); printed as DOTA-APAc-Asp-Trp-5Clw-Hyp-Glu-leu-[Dap(2Lut)-Thp-Leu-Ile-AET]"}, "B2": {"name": "DOTA-Ttds-Asp-Trp-5Clw-4Ap(Ac)-Glu-leu-[Cys(3MeBn)-Aib-Leu-Ile-AET] (peptide)", "peptide": "{DOTA-Ttds}-DW[Trp(5-Cl)][Pro(4S-NH2)](Ac)E[dL]C[Aib]LI[Cysteamide]", "modifications": "linker 7-11 via mXylylene"}, "B3": {"name": "HO-Succinyl-Trp-5Clw-Hyp-Glu-leu-[Cys(2Lut)-Apc(MeO10kDaPEGAc)-Leu-Ile-Cys]-APAc-Lys(DOTA)-NH2 (peptide)", "peptide": "Suc-W[Trp(5-Cl)][Hyp]E[dL]C[Api](MeO10kDaPEGAc)LIC-{APAc-Lys(DOTA)-NH2}", "modifications": "linker 6-10 via 2Lut"}, "B4": {"name": "Ac-Asp-Trp-5Clw-Hyp-Lys-leu-[Cys(2Lut)-Thp-Leu-Ile-Cys]-NH2 (peptide)", "peptide": "Ac-DW[Trp(5-Cl)][Hyp]K[dL]C[Thp]LIC-NH2", "modifications": "linker 7-11 via Pyridine(2,6-diCH2)", "SMILES": "CC[C@H](C)[C@@H]1NC(=O)[C@H](CC(C)C)NC(=O)C2(CCOCC2)NC(=O)[C@@H](NC(=O)[C@@H](CC(C)C)NC(=O)[C@H](CCCCN)NC(=O)[C@@H]2C[C@@H](O)CN2C(=O)[C@H](Cc2c[nH]c3ccc(Cl)cc23)NC(=O)[C@H](Cc2c[nH]c3ccccc23)NC(=O)[C@H](CC(=O)O)NC(C)=O)CSCc2cccc(n2)CSC[C@@H](C(N)=O)NC1=O"}, "B5": {"name": "Ac-Asp-Trp-5Clw-Hyp-Arg-leu-[Cys(2Lut)-Thp-Leu-Ile-Cys]-NH2 (peptide)", "peptide": "Ac-DW[Trp(5-Cl)][Hyp]R[dL]C[Thp]LIC-NH2", "modifications": "linker 7-11 via Pyridine(2,6-diCH2)"}, "B6": {"name": "Ac-Asp-Trp-5Clw-Hyp-His-leu-[Cys(2Lut)-Thp-Leu-Ile-Cys]-NH2 (peptide)", "peptide": "Ac-DW[Trp(5-Cl)][Hyp]H[dL]C[Thp]LIC-NH2", "modifications": "linker 7-11 via Pyridine(2,6-diCH2)", "SMILES": "CC[C@H](C)[C@@H]1NC(=O)[C@H](CC(C)C)NC(=O)C2(CCOCC2)NC(=O)[C@@H](NC(=O)[C@@H](CC(C)C)NC(=O)[C@H](Cc2c[nH]cn2)NC(=O)[C@@H]2C[C@@H](O)CN2C(=O)[C@H](Cc2c[nH]c3ccc(Cl)cc23)NC(=O)[C@H](Cc2c[nH]c3ccccc23)NC(=O)[C@H](CC(=O)O)NC(C)=O)CSCc2cccc(n2)CSC[C@@H](C(N)=O)NC1=O"}, "B7": {"name": "Ac-Asp-Trp-5Clw-Hyp-Hly-leu-[Cys(2Lut)-Thp-Leu-Ile-Cys]-NH2 (peptide)", "peptide": "Ac-DW[Trp(5-Cl)][Hyp][hLys][dL]C[Thp]LIC-NH2", "modifications": "linker 7-11 via Pyridine(2,6-diCH2)", "SMILES": "CC[C@H](C)[C@@H]1NC(=O)[C@H](CC(C)C)NC(=O)C2(CCOCC2)NC(=O)[C@@H](NC(=O)[C@@H](CC(C)C)NC(=O)[C@H](CCCCCN)NC(=O)[C@@H]2C[C@@H](O)CN2C(=O)[C@H](Cc2c[nH]c3ccc(Cl)cc23)NC(=O)[C@H](Cc2c[nH]c3ccccc23)NC(=O)[C@H](CC(=O)O)NC(C)=O)CSCc2cccc(n2)CSC[C@@H](C(N)=O)NC1=O"}, "B8": {"name": "Ac-Asp-Trp-5Clw-Hyp-Har-leu-[Cys(2Lut)-Thp-Leu-Ile-Cys]-NH2 (peptide)", "peptide": "Ac-DW[Trp(5-Cl)][Hyp][hArg][dL]C[Thp]LIC-NH2", "modifications": "linker 7-11 via Pyridine(2,6-diCH2)", "SMILES": "CC[C@H](C)[C@@H]1NC(=O)[C@H](CC(C)C)NC(=O)C2(CCOCC2)NC(=O)[C@@H](NC(=O)[C@@H](CC(C)C)NC(=O)[C@H](CCCCNC(=N)N)NC(=O)[C@@H]2C[C@@H](O)CN2C(=O)[C@H](Cc2c[nH]c3ccc(Cl)cc23)NC(=O)[C@H](Cc2c[nH]c3ccccc23)NC(=O)[C@H](CC(=O)O)NC(C)=O)CSCc2cccc(n2)CSC[C@@H](C(N)=O)NC1=O"}, "B9": {"name": "Ac-Asp-Eaa-Eaa-Oic-Glu-leu-[Cys(2Lut)-Thp-Leu-Ile-Cys]-NH2 (peptide)", "peptide": "Ac-D[Phe(3,4-Cl2)][Phe(3,4-Cl2)][Oic]E[dL]C[Thp]LIC-NH2", "modifications": "linker 7-11 via Pyridine(2,6-diCH2)", "SMILES": "CC[C@H](C)[C@@H]1NC(=O)[C@H](CC(C)C)NC(=O)C2(CCOCC2)NC(=O)[C@@H](NC(=O)[C@@H](CC(C)C)NC(=O)[C@H](CCC(=O)O)NC(=O)[C@@H]2C[C@@H]3CCCC[C@@H]3N2C(=O)[C@H](Cc2ccc(Cl)c(Cl)c2)NC(=O)[C@H](Cc2ccc(Cl)c(Cl)c2)NC(=O)[C@H](CC(=O)O)NC(C)=O)CSCc2cccc(n2)CSC[C@@H](C(N)=O)NC1=O"}},
  "note": "*1 amine or outer side, *2 acyl side, *3 side chain or, on linkers, in order; H or OH if unused. Bridges are numbered along the chain shown (N, C = ends). Primed or numbered codes have the meaning given here. [ ]: non-standard residue; d: D form. The star is where a group is joined. Ttds = 1,13-diamino-4,7,10-trioxatridecan-succinamic acid, NCCCOCCOCCOCCCNC(=O)CCC(=O)*; APAc″ = 4-amino-1-carboxymethylpiperidine, NC1CCN(CC(=O)*)CC1; DOTA = O=C(O)CN1CCN(CC(=O)O)CCN(CC(=O)*)CCN(CC(=O)O)CC1; 2Lut = 2,6-lutidylidene bridge between two thiols; Trp(5-Cl) = N[C@@H](Cc1c[nH]c2ccc(Cl)cc12)C(=O)O; Phe(3,4-Cl2) = N[C@@H](Cc1ccc(Cl)c(Cl)c1)C(=O)O; Pyridine(2,6-diCH2) = c1cc(C[*:1])nc(C[*:2])c1; APAc = 4-amino-1-carboxymethylpiperidine; Oic = O=C(O)[C@@H]1C[C@@H]2CCCC[C@@H]2N1; MeO10kDaPEGAc = polydisperse 10 kDa PEG; Pro(4S-NH2) = N[C@@H]1CN[C@H](C(=O)O)C1; mXylylene = c1cc(C[*:1])cc(C[*:2])c1; Hyp = O=C(O)[C@@H]1C[C@@H](O)CN1; hArg = N=C(N)NCCCC[C@H](N)C(=O)O; Cysteamide = C(CS[*:3])N[*:1]; Suc = O=C(CCC(=O)[*:2])[*:1]; hLys = NCCCCC[C@H](N)C(=O)O; Api = NC1(C(=O)O)CCNCC1; Thp = NC1(C(=O)O)CCOCC1; Dap = NC[C@H](N)C(=O)O; Aib = CC(C)(N)C(=O)O",
  "data": [
    {"biological_target": "human Gastric Inhibitory Peptide Receptor (human) (UniProt P48546)", "sequence (P48546 22-466 limits assumed)": "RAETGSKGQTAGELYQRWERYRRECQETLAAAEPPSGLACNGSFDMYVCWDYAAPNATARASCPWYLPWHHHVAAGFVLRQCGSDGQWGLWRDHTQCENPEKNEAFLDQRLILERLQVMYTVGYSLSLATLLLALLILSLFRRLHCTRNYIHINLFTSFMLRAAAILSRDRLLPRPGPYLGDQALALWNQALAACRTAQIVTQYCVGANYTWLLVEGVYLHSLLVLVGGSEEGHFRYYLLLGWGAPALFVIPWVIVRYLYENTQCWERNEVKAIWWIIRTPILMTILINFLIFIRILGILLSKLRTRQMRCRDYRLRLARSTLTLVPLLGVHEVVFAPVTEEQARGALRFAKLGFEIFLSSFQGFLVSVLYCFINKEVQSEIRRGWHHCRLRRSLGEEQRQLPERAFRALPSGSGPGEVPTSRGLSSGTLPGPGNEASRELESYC", "test": "FACS competition with GIP-057 on CHO-K1-hGIPR cells; pIC50 category A: >8.0", "units": {"pIC50": "pic50"}, "values": [
      {"binder": "B1", "pIC50": "> 8"},
      {"binder": "B2", "pIC50": "> 8"}
    ]},
    {"biological_target": "biotinylated extracellular domain of the human GIP receptor (bioGIPR) (human) (UniProt P48546)", "sequence (P48546 24-138 limits assumed)": "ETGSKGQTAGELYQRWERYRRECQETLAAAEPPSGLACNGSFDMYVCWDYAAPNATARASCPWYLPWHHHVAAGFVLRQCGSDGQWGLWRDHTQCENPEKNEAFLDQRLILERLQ", "test": "SPR single cycle kinetics, bioGIPR captured on chip; category B: pKD 8.1-9.0", "units": {"pKD": "pkd"}, "values": [
      {"binder": "B1", "pKD": "8.1 to 9"},
      {"binder": "B2", "pKD": "8.1 to 9"},
      {"binder": "B3", "pKD": "8.1 to 9"},
      {"binder": "B4", "pKD": "8.1 to 9"},
      {"binder": "B5", "pKD": "8.1 to 9"},
      {"binder": "B6", "pKD": "8.1 to 9"},
      {"binder": "B7", "pKD": "8.1 to 9"},
      {"binder": "B8", "pKD": "8.1 to 9"}
    ]},
    {"biological_target": "biotinylated extracellular domain of the human GIP receptor (bioGIPR) (human) (UniProt P48546)", "test": "SPR single cycle kinetics, bioGIPR captured on chip; category A: t1/2 >15 min", "units": {"t1/2": "min"}, "values": [
      {"binder": "B1", "t1/2": "> 15"},
      {"binder": "B2", "t1/2": "> 15"},
      {"binder": "B3", "t1/2": "> 15"},
      {"binder": "B4", "t1/2": "> 15"},
      {"binder": "B5", "t1/2": "> 15"},
      {"binder": "B6", "t1/2": "> 15"},
      {"binder": "B7", "t1/2": "> 15"},
      {"binder": "B8", "t1/2": "> 15"}
    ]},
    {"biological_target": "human Gastric Inhibitory Peptide Receptor (human) (UniProt P48546)", "test": "FACS competition with GIP-057 on CHO-K1-hGIPR cells; pIC50 category B: 7.1-8.0", "units": {"pIC50": "pic50"}, "values": [
      {"binder": "B3", "pIC50": "7.1 to 8"}
    ]},
    {"biological_target": "human Gastric Inhibitory Peptide Receptor (GIPR) (human) (UniProt P48546)", "sequence (P48546 22-466 limits assumed)": "as the sequence (P48546 22-466 limits assumed) above", "test": "FACS competition vs biotinylated GIP-057 on CHO-K1-hGIPR cells; category A: pIC50 >8.0", "units": {"pIC50": "pic50"}, "values": [
      {"binder": "B4", "pIC50": "> 8"},
      {"binder": "B5", "pIC50": "> 8"},
      {"binder": "B6", "pIC50": "> 8"},
      {"binder": "B7", "pIC50": "> 8"}
    ]},
    {"biological_target": "human Gastric Inhibitory Peptide Receptor (GIPR) (human) (UniProt P48546)", "test": "FACS competition vs biotinylated GIP-057 on CHO-K1-hGIPR cells; category D: pIC50 <=6.0", "units": {"pIC50": "pic50"}, "values": [
      {"binder": "B9", "pIC50": "< 6"}
    ]},
    {"biological_target": "human Gastric Inhibitory Peptide Receptor (GIPR) (human) (UniProt P48546)", "test": "FACS competition vs biotinylated GIP-057 on CHO-K1-hGIPR cells; category B: pIC50 7.1-8.0", "units": {"pIC50": "pic50"}, "values": [
      {"binder": "B8", "pIC50": "7.1 to 8"}
    ]}
  ]
}
